Molecular target: the molecule itself
Experiment: not described in this filing

B1: 36-38A TCL1 (other, human, UniProt P56279 1-114, looked up)
chain: MAECPTLGEAVTDHPDRLWAWEKFVYLDEKQHAWLAAAIEIKDRLQLRVLLRREDVVLGRPMTPTQIGPSLLPIMWQLYPDGRYRSSDSSFWRLVYHIKIDGVEDMLLELLPDD
- binding result: no binding

Source: patent publication US20120034651A1 (JAPAN SCIENCE AND TECHNOLOGY AGENCY, published 2012)
